Data on 11 molecules can be found in patent publication US20140005125A1 (Molecular Partners, published 2014).

Residue numbers refer to the chain shown, from its start.

B1: DARPin #24 (designed binder)
chain: MRGSHHHHHHGSDLGKKLLEAARAGQDDEVRELLKAGADVNAKDEEGTTPLHYAAVWGHLEIVEVLLKAGADVNAQDIYGATPADLAALVGHEDIAEVLQKLN
B2: DARPin #28 (designed binder)
chain: B1 chain with E32I, L34M, K35A, A36N
B3: DARPin #30 (designed binder)
chain: B1 chain with W57Y
B4: DARPin #49 (designed binder)
chain: MRGSHHHHHHGSDLGKKLLEAARAGQDDEVRILMANGADVNAQDLNGQTPLHLAADIGHLEIVEVLLKHGADVNAQDYAGSTPLRLAAWAGHLEIVEVLLKNGADVNANDYFGYTPLHLAAYFGHLEIVDVLLKHGADVNAQDKFGKTAFDISIDNGNEDLAEILQKLN
B5: DARPin #59 (designed binder)
chain: B4 chain with D27G, R31H, D130E
B6: DARPin #38 (designed binder)
chain: MRGSHHHHHHGSDLGDKLLWAAKHGQDDEVRILLAAGADVNAKDDEGSTPLHYAAVWGHLETVEVLLKAGADVNAQDIWGATPADLAALLGHEDIAEVLQKLN
B7: DARPin #37 (designed binder)
chain: MRGSHHHHHHGSDLGWKLLEAARTGQDDEVRILLAAGADVNAKDITGTTPLHYAAAWGHMEIVEVLLKTGADVNAQDLYGATPADLAALLGHEDIAEVLQKLN
B8: DARPin #44 (designed binder)
chain: MRGSHHHHHHGSDLGAKLLHAAVVGQDDEVRILLAAGADVNAKDKSGHTPLHLAAYSGHLEIVEVLLKAGADVNAKDQEGTTPLHFAASVGHLEIVEVLLKAGADVNAQDHYGATPADLAALIGHEDIAEVLQKLN
B9: DARPin #43 (designed binder)
chain: MRGSHHHHHHGSDLGLKLLEAAQRGQDDEVRILLAAGADVNAKDREGWTPLHVAAYEGHLEIVEVLLKAGADVNAKDYTGLTPLHVAAVWGHLEIVEVLLKAGADVNAQDIYGATPADLAAYIGHEDIAEVLQKLN
B10: DARPin #34 (designed binder)
chain: MRGSHHHHHHGSDLGDKLLQSDLGRKLLHAARSGQDDEVRILLAAGADVNAKDEDGTTPLHYAAAWGHLEIVEVLLKAGADVNAQDIYGATPADLAAYIGHEDIAEVLQKLN
B11: DARPin #50 (designed binder)
chain: MRGSHHHHHHGSDLGKKLLEAARAGQDDEVRELLKAGADVNAKDLNGQTPLHLAADIGHLEIVEVLLKAGADVNAKDYAGSTPLRLAAWAGHLEIVEVLLKAGADVNAKDYFGYTPLHLAAYFGHLEIVEVLLKAGADVNAQDKFGKTAFDISIDNGNEDLAEILQKLN

The target in the first assay is T1, Recombinant human PDGF-BB (human, UniProt P01127 82-190). The assay is described as follows: cell-based or functional assay.
T1 sequence (P01127 82-190 limits assumed): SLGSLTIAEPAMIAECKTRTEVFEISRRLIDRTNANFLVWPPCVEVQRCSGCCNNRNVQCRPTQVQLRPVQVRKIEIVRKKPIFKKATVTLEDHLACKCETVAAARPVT
Take B1: the “IC50 of inhibition of NIH-3T3 cell proliferation (WST-1)” value (“IC50 of inhibition … (WST-1)” for short) stood at 1.4 nM.

For B2, the “IC50 of inhibition … (WST-1)” value stood at 1.6 nM.

For the molecule B3, the “IC50 of inhibition … (WST-1)” value was 3.2 nM.

Consider B4, for which the “IC50 of inhibition … (WST-1)” value was 1.9 nM.

For B5, the “IC50 of inhibition … (WST-1)” value is 2 nM.

A further assay deals with T2, Recombinant murine PDGF-BB (mouse, UniProt P31240 82-190, limits assumed).
T2 construct: For SPR chemically biotinylated on primary amines and captured on neutravidin; also called mouse PDGF-BB; PDGF-BB (mouse)
T2 sequence (P31240 82-190 limits assumed): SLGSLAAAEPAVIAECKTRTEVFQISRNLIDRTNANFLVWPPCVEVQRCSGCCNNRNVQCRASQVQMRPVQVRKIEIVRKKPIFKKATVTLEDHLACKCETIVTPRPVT
As to the kind of experiment: SPR (ProteOn), biotinylated PDGF-BB on neutravidin chip, DARPin injected; Kd from on- and off-rates. The protocol: (§1) Biotinylated PDGF-BB molecules from human and mouse were immobilized in a flow cell through binding to coated […] and the interaction with various selected DARPins was analyzed.
(§2) SPR was measured using a ProteOn instrument (BioRad) and measurement was performed according standard procedures known to the person skilled in the art. The running buffer was PBS, pH 7.4, containing 0.005% Tween 20®. Neutravidin was covalently immobilized on a GLC chip (BioRad) to a level of about 8000 resonance units (RU). Immobilization of PDGF-BB on the neutravidin coated chip was then performed. The interaction of DARPin PDGF-BB was then measured by injecting 100 μl running buffer (PBS containing 0.005% Tween®) containing serial dilutions of DARPins of concentration of […] (on-rate measurement), followed by a running buffer flow for between 10 minutes and up to 3 hours at a constant flow rate of 30 μl/min (off-rate measurement). The signals (i.e. resonance unit (RU) values) of an uncoated reference cell and a reference injection (i.e. injection of running buffer only) were subtracted from the RU traces obtained after injection of […] (double-referencing). From the SRP traces obtained from the on-rate and off-rate measurements the on- and off-rate of the corresponding DARPin PDGF-BB interaction can be determined.
(§3) Dissociation constants (Kd) were calculated from the estimated on- and off-rates using standard procedures known to the person skilled in the art.
As to B6, the Kd (commonly a measure of binding affinity in units of concentration) was 0.0583 nM.

Consider B7, for which the dissociation constant Kd was found to be 0.0828 nM.

As to B4, the dissociation constant Kd is 0.102 nM.

In the case of B8, the Kd was 0.0902 nM.

On to B9, for which the Kd was 1510 nM.

B10: the Kd is 0.0592 nM.

For the next assay, the target named is T1, Recombinant human PDGF-BB. The description is as above. The protocol: as §1, §2, §3
Regarding B1, the Kd came to 0.0301 nM.

Turning to B6, the Kd was found to be 0.0941 nM.

For B7, the Kd amounted to 0.152 nM.

Turning to B2, the Kd is 0.0171 nM.

Regarding B3, the Kd turned out to be 0.11 nM.

In the case of B4, the Kd worked out at 0.0769 nM.

B5: the dissociation constant Kd turned out to be 0.171 nM.

Turning to B11, the dissociation constant Kd was 0.115 nM.

B8: the Kd was determined as 0.0768 nM.

B9: the Kd amounted to 1290 nM.

For the molecule B10, the Kd worked out at 0.0775 nM.

Another assay addresses T1, Recombinant human PDGF-BB. As to the kind of experiment: receptor competition ELISA: DARPin preincubated with PDGF-BB, free PDGF-BB captured on coated PDGFRbeta/Fc; mean IC50. The protocol: (§4) The potency of PEGylated anti-PDGF-BB DARPins to inhibit the binding of human PDGF-BB to its receptor PDGFRbeta was determined in a in a receptor competition ELISA (based on PDGF-BB Quantikine, R&D Systems). PDGFRbeta/Fc chimera has been precoated on a microplate. The DARPins were preincubated in assay diluent from the PDGF-BB Quantikine kit (R&D Systems) with a defined amount of PDGF-BB and incubated at room temperature for 2 hours with shaking at 750 rpm. These preincubation mixtures were then transferred into the precoated wells and any PDGF-BB that is not blocked by the DARPins was bound by the immobilized receptor. After washing away any unbound substances, a horse radish peroxidase-linked polyclonal antibody specific for PDGF-BB was added to the wells. Following a wash to remove any unbound antibody-enzyme reagent, a substrate solution was added to the wells and color was developing in proportion to the amount of PDGF-BB bound. The color development was stopped and the intensity of the color was measured at […]. Example titration curves are given for a set of DARPins in FIG. 2. IC₅₀ values were calculated from such titration curves obtained as described above using Graph Pad Prism software and standard procedures known to the person skilled in the art.
For B1, the 50% inhibitory concentration (IC50) (commonly the midpoint of a concentration-inhibition curve) came out at 0.015 nM.

For the molecule B6, the IC50 came out at 0.085 nM.

As for B7, the IC50 is greater than 0.4 nM.

For B2, the concentration for half-maximal inhibition (IC50) was 0.016 nM.

B3: the IC50 amounted to 0.49 nM.

In the case of B4, the IC50 was 0.066 nM.

On to B11, for which the IC50 worked out at 0.032 nM.

With B8, the half-inhibitory concentration (IC50) worked out at 0.13 nM.

For the molecule B10, the IC50 was 0.21 nM.

Another assay deals with T1, Recombinant human PDGF-BB. As to the kind of experiment: receptor competition ELISA (PDGFRbeta), distinct single experiment of FIG. 2. The protocol:
The inhibition of the binding of PDGF-BB to PDGFRbeta by various concentrations of DARPins with specificity for PDGF-BB and the corresponding fitted inhibition curves are shown for a distinct single experiment. The IC₅₀ values were then calculated to be about 20 and 18 pM for the DARPins #50 (D1) and #28 (D2), respectively. OD, optical density at 450 nm; C, concentration of DARPins in pM. The X axis is shown in logarithmic scale. See below for the definitions of DARPin #50 and 28.
as §4, with “After washing away any unbound substances, a horse radish peroxidase-linked polyclonal antibody specific for PDGF-BB was added to the wells. Following a wash to remove any unbound antibody-enzyme reagent, a substrate solution was added to the wells and color was developing in proportion to the amount of PDGF-BB bound.” left out, “Example titration curves are given for a set of DARPins in FIG. 2.” left out
Turning to B2, the IC50 was roughly 0.018 nM.

For the molecule B11, the IC50 is roughly 0.02 nM.
